Laboratory results from the supplement of paper PMC12764529.
± gives the half width of the 95% confidence interval.

Experiments:
[1] = folding stability dG unfold (combined trypsin and chymotrypsin); higher = more stable
In short: (§1)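 Designed mini-proteins with no cysteine and under 80 residues were kept only if AlphaFold2 dimer inter-PAE was above 15. In a PA-tagged cDNA display construct, they were digested with trypsin and chymotrypsin and then sequenced. K50 was inferred by Bayesian fitting of counts, and unfolding free energy was derived per protease or combined against a sequence-predicted unfolded-state K50 and a shared folded-state K50.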

[2] = folding stability dG unfold from trypsin proteolysis; higher = more stable
In short: as §1

[3] = folding stability dG unfold from chymotrypsin proteolysis; higher = more stable
In short: as §1

Sequence	folding stability dG unfold [1] [kcal/mol]	folding stability dG unfold [2] [kcal/mol]	folding stability dG unfold [3] [kcal/mol]
SAGGSAGGSAGMKIEVFPNTIKIYPENGKVLTFEAPDFGEEAIKEIAKAFPNAKIEPVEPSAGGSAGGSAGG [r17_545_TrMRF]	-0.189 ± 0.25	-0.338 ± 0.13	-0.335 ± 0.16
SAGGSAGGSAGMKIKTKNGEVIEIKVDKKTGKIEITFPDGKKITIDAPNLTIEDIKKLLESAGGSAGGSAGG [r11_729_TrMRF]	2.36 ± 0.051	2.47 ± 0.064	2.34 ± 0.047
SAGGSAGGSAGMKPGETYLVRIRVKVDGKWYEKEVKFKSLEELKKAGIENIEEIEIRKLPSAGGSAGGSAGG [r17_290_TrROS_Hall]	2.47 ± 0.16	1.99 ± 0.033	2.72 ± 0.075
SAGGSAGGSAGMKPNEPDLVLLTTTVTLTTTETTTDEDGNTYTTTTTTTLTTTTLLPRGTSAGGSAGGSAGG [r17_523_TrROS_Hall]	3.63 ± 0.1	2.77 ± 0.17	3.94 ± 0.087
SAGGSAGGSAGMKSTVTQPGDTWTITITDPETGEVTTYTLTPAQLGELAASSRPVAVAPGSAGGSAGGSAGG [r11_741_JUSTAS]	1.24 ± 0.058	0.614 ± 0.053	1.5 ± 0.086
SAGGSAGGSAGMKTITKKVKSEEEAKKLAEELKKKGYKVEVEVKKDPKTGNYIVTITIELPESAGGSAGGSA [r18_455_JUSTAS]	3.91 ± 0.39	3.32 ± 0.18	3.89 ± 0.19
SAGGSAGGSAGMKTYTAEEIKNLPPGAKVIEVDGKLKIEIDGKIYTIEPGETVEIEPLEESAGGSAGGSAGG [r17_91_TrROS_Hall]	1.89 ± 0.11	1.57 ± 0.078	2.04 ± 0.043
SAGGSAGGSAGMKVEIEVYELPGGERPVKITVTYENKPKEYEKEAETEEEAEEFAKELLESAGGSAGGSAGG [r11_560_JUSTAS]	-0.0487 ± 0.57	-0.237 ± 0.23	0.039 ± 0.58
SAGGSAGGSAGMKVELSVAPDPATGEPVLLFHFEDFTLALNPNTGAIGVYLKDEVELFELSAGGSAGGSAGG [r17_544_TrMRF]	2.03 ± 0.14	2 ± 0.13	1.98 ± 0.1
SAGGSAGGSAGMKVLVLRIRIERPEEELSEEDRAKLPPVRIEIELVEVELPPEVEVREEESAGGSAGGSAGG [r17_310_TrROS_Hall]	3.43 ± 0.2	2.44 ± 0.14	3.86 ± 0.11
SAGGSAGGSAGMLWIHDPESGTLVMLHPKPDGEVNVQVWQFDPDNGKPEIKTVPADNIEASAGGSAGGSAGG [r11_285_TrROS]	0.924 ± 0.091	0.376 ± 0.046	1.22 ± 0.18
SAGGSAGGSAGMMVVRAKIKLPNGEVLEIENMSLEEILALAKEKGYEIVDIEVVAPDEEPSAGGSAGGSAGG [r11_283_TrMRF]	4.37 ± 0.26	4.77 ± 0.77	4.07 ± 0.14
SAGGSAGGSAGMNITITFPDGTVVEIPDVPPEYADVTPEKLKEEVLKKYPNVNVKVSPNGSAGGSAGGSAGG [r17_42_JUSTAS]	0.101 ± 0.22	0.302 ± 0.055	0.127 ± 0.038
SAGGSAGGSAGMNKKGKYTVIEELVINPKTNYLFKKKVTIYPDGKIEVKSELLGPILPTESAGGSAGGSAGG [r11_226_TrMRF]	1.03 ± 0.06	0.336 ± 0.051	1.4 ± 0.067
SAGGSAGGSAGMPIEKALEQADKNGRPVQIRVPNGRDIYITVKYKNGKYKIEIMPAEEIKSAGGSAGGSAGG [r17_463_TrROS]	1.51 ± 0.18	1.09 ± 0.047	1.89 ± 0.085
SAGGSAGGSAGMPPPVVVEPKRTSVVPESGLVIIPVTVFNPANGKATLTTYLYDPATGKLVLSAGGSAGGSA [r18_228_JUSTAS]	1.72 ± 0.12	0.734 ± 0.17	2.17 ± 0.058
SAGGSAGGSAGMRKYTWPFRIPLGGKPFEIRVEMEYDPSSGKHRIEITPEAKDLIKKKIFSAGGSAGGSAGG [r11_91_TrROS]	0.875 ± 0.058	0.59 ± 0.069	0.839 ± 0.088
SAGGSAGGSAGMRLLTVEYFDENGNPLSVEEIELYIERPPPPFLELEIDPRTGEPRFTGLSAGGSAGGSAGG [r17_348_JUSTAS]	1.36 ± 0.14	1.01 ± 0.078	1.68 ± 0.068
SAGGSAGGSAGMSTTPVAYKFTFTLPGGETLEREGTDVAALKEALKAEYGAVEITVTPVSSAGGSAGGSAGG [r17_508_JUSTAS]	2.17 ± 0.1	2.2 ± 0.042	2.07 ± 0.12
SAGGSAGGSAGMTFVITDKNGKETTISLEEAAKLLGIPVEEITEEELKEFLEKKVKTIEKISSAGGSAGGSA [r18_403_JUSTAS]	2.18 ± 0.17	0.898 ± 0.074	2.6 ± 0.046
SAGGSAGGSAGMTIEELKAKGYKVEVVKLPDSPEEVVVVTYPVPPGGIEKSVIPLSEVKLSAGGSAGGSAGG [r17_311_JUSTAS]	0.375 ± 0.052	-0.00127 ± 0.025	0.601 ± 0.048

Sequence	folding stability dG unfold [1] [kcal/mol]	folding stability dG unfold [2] [kcal/mol]	folding stability dG unfold [3] [kcal/mol]
SAGGSAGGSAGMTIKEDPKTGTRVVRLPDGSVLYIEEKGDKIKKVYSDPVPPVPPGNPALASAGGSAGGSAG [r3_406_JUSTAS]	0.574 ± 0.061	0.217 ± 0.026	0.734 ± 0.048
SAGGSAGGSAGMTIQIEILTTGDLEETKKKLEEELKKKYPSSLKVIIKLSHVPASEAPSDLGSAGGSAGGSA [r18_498_JUSTAS]	1.13 ± 0.14	0.969 ± 0.025	1.19 ± 0.033
SAGGSAGGSAGMTLEELERLGYKVEVFRHPDTPEVYVRVEYPVPPGGLKRAVIPLKDVKLSAGGSAGGSAGG [r17_311_TrMRF]	0.499 ± 0.039	-1.35 ± 0.52	0.93 ± 0.077
SAGGSAGGSAGMTLEELLRKAKPGQTLTLRVRVVERNEDGSLSEREFTFTFRLELKPEDLSAGGSAGGSAGG [r11_347_TrROS_Hall]	3.15 ± 0.21	2.55 ± 0.077	3.61 ± 0.06
SAGGSAGGSAGMTLEIEVDPDNKVIELKIYIGGKPVEMTIVVTPNSGYIRIPDGGWIPIESAGGSAGGSAGG [r11_395_TrROS]	2.85 ± 0.083	2.1 ± 0.053	3.37 ± 0.065
SAGGSAGGSAGMTLKVEVKVKVKVFDENGKLVREEEVTVEVEIELEPAPELRFLSEEELKSAGGSAGGSAGG [r17_325_TrROS_Hall]	2.12 ± 0.11	1.24 ± 0.053	2.63 ± 0.057
SAGGSAGGSAGMTLLVKNEDGYLVKIEITEVEVDENGELHLKVKVEVLPPLEEVEEVEEESAGGSAGGSAGG [r17_536_TrROS_Hall]	1.65 ± 0.17	1.4 ± 0.076	1.79 ± 0.054
SAGGSAGGSAGMTLRLKIRVYDPETREEVEEKEIEVELPPGASLEELLAALPPEQVEVEFSAGGSAGGSAGG [r17_339_TrROS_Hall]	0.848 ± 0.15	0.534 ± 0.12	1.1 ± 0.2
SAGGSAGGSAGMTLTLEFTDPEVAIPLAEKLAEELGLELVEIEEREEGERPVYLVTLKVPSAGGSAGGSAGG [r11_232_JUSTAS]	1.61 ± 0.043	1.63 ± 0.056	1.52 ± 0.021
SAGGSAGGSAGMTLTVTSPSSDTPIGTIELPSSLSEEELEAAVEAVRAALPPDVTVEVTGSAGGSAGGSAGG [r11_1081_JUSTAS]	1.13 ± 0.093	1.41 ± 0.084	0.954 ± 0.046
SAGGSAGGSAGMTRTVTFTITDPNSSNTTTITVPTTSEQDVAAAKAALKAANPNVTITLTSAGGSAGGSAGG [r11_233_JUSTAS]	0.718 ± 0.076	0.3 ± 0.12	0.954 ± 0.092
SAGGSAGGSAGMTVTTITKTYPFDPNKSLSFTVPPGATITDKKTDADIAKGTVTVTVTVASAGGSAGGSAGG [r11_701_JUSTAS]	0.436 ± 0.13	0.345 ± 0.053	0.355 ± 0.13
SAGGSAGGSAGMTVTVPPDLDPESAIAALKAAAPASVKTVTLTIVDGEGPTTTVTVDITGSAGGSAGGSAGG [r17_215_JUSTAS]	0.00145 ± 0.096	-0.402 ± 0.18	0.209 ± 0.11
SAGGSAGGSAGMTYRVRIENADGEVVTIEISADELREKGLTLEELLPPNARIVEVEEVEPSAGGSAGGSAGG [r11_829_TrROS_Hall]	3.63 ± 0.09	3.8 ± 0.16	3.61 ± 0.063
SAGGSAGGSAGMVDKKTGKPVEKVKVIIRNKNGKKEEKEVTLEELKELAENLPYEIEFEKSAGGSAGGSAGG [r17_125_TrROS_Hall]	1 ± 0.25	1.16 ± 0.079	0.82 ± 0.1
SAGGSAGGSAGMVETVSTTTSVETGPDSTRYTTTTTTVLVTDSSGTPIATTTTTTTTVTASAGGSAGGSAGG [r17_139_JUSTAS]	0.986 ± 0.056	1.45 ± 0.051	0.314 ± 0.17
SAGGSAGGSAGMVIELPDGRKAIIVKYDKETKRFYVEIVDKKTGEKKIYEFKSLEEALKASAGGSAGGSAGG [r17_300_TrROS_Hall]	2.79 ± 0.15	2.18 ± 0.16	2.86 ± 0.092
SAGGSAGGSAGMVITLPNGEKVEITFDKENKKITITFPDGKKVEIEIEGMSLEEILKALKSAGGSAGGSAGG [r11_729_TrROS_Hall]	3.59 ± 0.089	3.84 ± 0.14	3.22 ± 0.075
SAGGSAGGSAGMVLPRPDGSLVVITEHPDGTVTVTFAPPDKPITIEVPKEEPVDIRVFPLSAGGSAGGSAGG [r11_164_TrMRF]	1.02 ± 0.046	1.39 ± 0.043	0.324 ± 0.087
SAGGSAGGSAGMVTETTVSRLPDGTVTTTTTEYVVHPDGSLEPVRERTTTTPVPPDVPAASAGGSAGGSAGG [r11_440_JUSTAS]	0.897 ± 0.037	0.396 ± 0.051	1.142 ± 0.011
